How the values were obtained:
[1] = target: galectins; conditions: in vitro; cited from earlier work
[2] = system: NHF human foreskin skin fibroblasts; test: in vitro
Source text: (§1) The XLSTAT software was used to determine the IC50, TGI and LC50 values using the four-parameter logistic curve equation.

[3] = system: SK-BR-3 human breast adenocarcinoma; test: SRB cell proliferation (cytotoxicity) assay, SK-BR-3
Source text: as §1

[4] = system: MCF-7 human breast adenocarcinoma cell line; test: SRB cell proliferation (cytotoxicity) assay, MCF-7
Source text: as §1

[5] = system: HCT 116 human colorectal carcinoma; test: SRB cell proliferation (cytotoxicity) assay, HCT 116
Source text: as §1

[6] = system: A-375 human malignant melanoma; test: SRB cell proliferation (cytotoxicity) assay, A-375
Source text: as §1

[7] = system: OVCAR-3 human ovarian adenocarcinoma cell line; test: SRB cell proliferation (cytotoxicity) assay, OVCAR-3
Source text: as §1

[8] = target: T1, native human galectin-1 (hGal1) (Homo sapiens, UniProt P09382); test: Thermofluor thermal shift assay (TSA), native galectin-1; assay type: binding; conditions: 5 μM protein
T1 construct: 42; made in house; host or cells: E. coli strain M-15
T1 sequence (P09382 2-135): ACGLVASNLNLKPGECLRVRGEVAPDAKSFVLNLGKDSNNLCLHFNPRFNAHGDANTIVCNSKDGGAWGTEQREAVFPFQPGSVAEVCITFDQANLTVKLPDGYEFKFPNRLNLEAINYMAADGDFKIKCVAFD
Experimental: In an attempt to screen among the selected aptamers that better interact with hGal1, differential scanning fluorimetry (Termofluor) was used to characterize their binding to its target. Among all the selected aptamers, SEQ ID NO.: 4 seemed to have a more intense effect on hGal1 thermoshift and so was chosen for further analysis. The selected aptamer had its interaction evaluated with native and alkylated galectin-1. […] The respective thermal displacements were evaluated as a function of an increasing concentration of SEQ ID NO.: 4 (FIG. 1).
Thermofluor experiments were performed on an Mx3005 RT-PCR (Agilent Technologies) using the SYPRO® Orange dye (492/610 nm) (Invitrogen) as fluorescent probe. The purified (native and alkylated) protein samples were incubated for 30 min with increasing concentration of the molecules of interest, centrifuged, and submitted to the thermal denaturation assay, totalizing four distinct experiments. In a 96-well plate (Agilent Technologies) 20 μl of the reaction containing 5 μM of each protein in buffer PBS 1× and 5× SYPRO® Orange were heated from 25° C. to 95° C. at a rate of 1° C./min. The experimental result was processed as in the protocol previously described and the melting temperature was obtained using GraphPad Prism software (www.graphpad.com).

[9] = system: OVCAR-3 cell line; test: Synergism test with cisplatin, OVCAR-3; conditions: cisplatin 3 μM
Source text: For the analysis of cell proliferation, the non-clonogenic method of sulforodamine B (SRB) was used, a protein dye that binds to the basic amino acid residues of cell proteins that were viable at the time of the fixation process. Therefore, the greater the amount of SRB bound per compartment, the less the antiproliferative activity of the item under study.

[10] = system: DU-145 human prostate carcinoma cell line; test: SRB cell proliferation (cytotoxicity) assay, DU-145
Source text: as §1

[11] = target: T2, hGal1-induced hemagglutination of red blood cells (Homo sapiens, UniProt P09382); test: Hemagglutination inhibition assay, native hGal1; assay type: cell-based; conditions: native Gal1 5 μM
T2 construct: 42; made in house; host or cells: E. coli strain M-15
T2 sequence (P09382 2-135): as above
How it was run: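 hGal1 (5 μM) was mixed with aptamer at 0-40 μM in PBS pH 7.4, then 3% type B+ human red blood cells were added and the mixture incubated 2 h at room temperature. Agglutination area was measured from plate photographs and expressed as relative agglutination.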

[12] = system: seven cell lines of solid human tumors; test: SRB antiproliferative assay, panel of tumor lines; assay type: cell-based; conditions: read-out: 50% growth inhibitory concentrations (IC50); all tumor cell lines assessed
Source text: as §1

[13] = system: HT-29 human colorectal adenocarcinoma; test: SRB cell proliferation (cytotoxicity) assay, HT-29
Source text: as §1

Q: Which Kd [1] does the source give for 1-methyl derivative of LacNac here?
A: 70 µM

B1: AGCTGACACAGCAGGTTGGTGCCAACAAGAAAAGAAACCGTTACAGAAGACACTACAGAATAAGTGAAAAGCCGAGTCGAGCAATCTCGAAAT (nucleic acid)
DNA: AGCTGACACAGCAGGTTGGTGCCAACAAGAAAAGAAACCGTTACAGAAGACACTACAGAATAAGTGAAAAGCCGAGTCGAGCAATCTCGAAAT
modifications: chemistry not given here
Q: Which “Relative viability (%) of test items” value ([2]; 0.781 µM) does the source give for B1 here?
A: 103.3%

Q: And the “Relative viability (%) of test items” value ([2]; 1.562 µM)?
A: 101.8%

Q: What about the “Relative viability (%) of test items” value ([2]; 3.125 µM) of the same molecule?
A: 93.5%

Q: And the “Relative viability (%) of test items” value ([2]; 6.25 µM)?
A: 96.1%

Q: What about the “Relative viability (%) of test items” value ([2]; 12.5 µM) of the same molecule?
A: 101.4%

Q: What about the “Relative viability (%) of test items” value ([2]; 25 µM) of the same molecule?
A: 66.8%

Q: What about the “Relative viability (%) of test items” value ([2]; 50 µM) of the same molecule?
A: 24.3%

Q: And the “Relative viability (%) of test items” value ([2]; 100 µM)?
A: −32.9%

Q: What about the “TGI: Concentration for total inhibition of cell growth” value ([2]; NHF) of the same molecule?
A: 64.820 µM

Q: What about the IC50 ([2]; read-out: IC50: Concentration to inhibit 50% of cell growth, NHF) of the same molecule?
A: 35.7 µM

Q: What about the CC50 ([2]; read-out: LC50: Concentration for 50% cell death, NHF) of the same molecule?
A: > 100 µM

Q: What about the “Relative cell viability (%) of test items” value (“Relative cell viability (%)” for short) ([3]; 0.781 µM) of the same molecule?
A: 98.0%

Q: What about the “Relative cell viability (%)” value ([3]; 1.562 µM) of the same molecule?
A: 99.1%

Q: And the “Relative cell viability (%)” value ([3]; 3.125 µM)?
A: 113.9%

Q: And the “Relative cell viability (%)” value ([3]; 6.25 µM)?
A: 95.4%

Q: And the “Relative cell viability (%)” value ([3]; 12.5 µM)?
A: 90.0%

Q: What about the “Relative cell viability (%)” value ([3]; 25 µM) of the same molecule?
A: 50.2%

Q: What about the “Relative cell viability (%)” value ([3]; 50 µM) of the same molecule?
A: −8.6%

Q: What about the “Relative cell viability (%)” value ([3]; 100 µM) of the same molecule?
A: −66.5%

Q: What about the “TGI: Concentration for total inhibition of cell growth” value ([3]; SK-BR-3) of the same molecule?
A: 45.137 µM

Q: And the IC50 ([3]; read-out: IC50: Concentration to inhibit 50% of cell growth, SK-BR-3)?
A: 26 µM

Q: And the CC50 ([3]; read-out: LC50: Concentration for 50% cell death, SK-BR-3)?
A: 78.6 µM

Q: What about the “Relative viability (%) of test items” value ([4]; 0.781 µM) of the same molecule?
A: 86.4%

Q: What about the “Relative viability (%) of test items” value ([4]; 1.562 µM) of the same molecule?
A: 85.8%

Q: What about the “Relative viability (%) of test items” value ([4]; 3.125 µM) of the same molecule?
A: 83.0%

Q: What about the “Relative viability (%) of test items” value ([4]; 6.25 µM) of the same molecule?
A: 74.2%

Q: And the “Relative viability (%) of test items” value ([4]; 12.5 µM)?
A: 63.0%

Q: And the “Relative viability (%) of test items” value ([4]; 25 µM)?
A: 47.1%

Q: And the “Relative viability (%) of test items” value ([4]; 50 µM)?
A: 25.6%

Q: What about the “Relative viability (%) of test items” value ([4]; 100 µM) of the same molecule?
A: −29.0%

Q: And the “TGI: Concentration for total inhibition of cell growth” value ([4]; MCF-7)?
A: 70.609 µM

Q: What about the IC50 ([4]; read-out: IC50: Concentration to inhibit 50% of cell growth, MCF-7) of the same molecule?
A: 24.3 µM

Q: What about the CC50 ([4]; read-out: LC50: Concentration for 50% cell death, MCF-7) of the same molecule?
A: > 100 µM

Q: What about the “Relative cell viability (%)” value ([5]; 0.781 µM) of the same molecule?
A: 95.9%

Q: What about the “Relative cell viability (%)” value ([5]; 1.562 µM) of the same molecule?
A: 97.5%

Q: And the “Relative cell viability (%)” value ([5]; 3.125 µM)?
A: 99.9%

Q: What about the “Relative cell viability (%)” value ([5]; 6.25 µM) of the same molecule?
A: 96.1%

Q: What about the “Relative cell viability (%)” value ([5]; 12.5 µM) of the same molecule?
A: 69.4%

Q: And the “Relative cell viability (%)” value ([5]; 25 µM)?
A: 27.9%

Q: And the “Relative cell viability (%)” value ([5]; 50 µM)?
A: 6.3%

Q: What about the “Relative cell viability (%)” value ([5]; 100 µM) of the same molecule?
A: −47.3%

Q: And the “TGI: Concentration for total inhibition of cell growth” value ([5]; HCT 116)?
A: 47.447 µM

Q: What about the IC50 ([5]; read-out: IC50: Concentration to inhibit 50% of cell growth, HCT 116) of the same molecule?
A: 20.2 µM

Q: And the CC50 ([5]; read-out: LC50: Concentration for 50% cell death, HCT 116)?
A: > 100 µM

Q: And the “Relative cell viability (%)” value ([6]; 0.781 µM)?
A: 92.6%

Q: What about the “Relative cell viability (%)” value ([6]; 1.562 µM) of the same molecule?
A: 84.5%

Q: What about the “Relative cell viability (%)” value ([6]; 3.125 µM) of the same molecule?
A: 87.7%

Q: What about the “Relative cell viability (%)” value ([6]; 6.25 µM) of the same molecule?
A: 74.2%

Q: And the “Relative cell viability (%)” value ([6]; 12.5 µM)?
A: 81.1%

Q: What about the “Relative cell viability (%)” value ([6]; 25 µM) of the same molecule?
A: 65.8%

Q: What about the “Relative cell viability (%)” value ([6]; 50 µM) of the same molecule?
A: 51.6%

Q: What about the “Relative cell viability (%)” value ([6]; 100 µM) of the same molecule?
A: −72.1%

Q: And the “TGI: Concentration for total inhibition of cell growth” value ([6]; A-375)?
A: 74.279 µM

Q: And the IC50 ([6]; read-out: IC50: Concentration to inhibit 50% of cell growth, A-375)?
A: 47.9 µM

Q: And the CC50 ([6]; read-out: LC50: Concentration for 50% cell death, A-375)?
A: 93.1 µM

Q: What about the “Relative viability (%) of test items” value ([7]; 0.781 µM) of the same molecule?
A: 79.9%

Q: And the “Relative viability (%) of test items” value ([7]; 1.562 µM)?
A: 90.2%

Q: What about the “Relative viability (%) of test items” value ([7]; 3.125 µM) of the same molecule?
A: 77.9%

Q: And the “Relative viability (%) of test items” value ([7]; 6.25 µM)?
A: 59.2%

Q: And the “Relative viability (%) of test items” value ([7]; 12.5 µM)?
A: 34.7%

Q: What about the “Relative viability (%) of test items” value ([7]; 25 µM) of the same molecule?
A: 16.9%

Q: What about the “Relative viability (%) of test items” value ([7]; 50 µM) of the same molecule?
A: −3.7%

Q: What about the “Relative viability (%) of test items” value ([7]; 100 µM) of the same molecule?
A: −51.1%

Q: What about the “TGI: Concentration for total inhibition of cell growth” value ([7]; OVCAR-3) of the same molecule?
A: 39.740 µM

Q: What about the IC50 ([7]; read-out: IC50: Concentration to inhibit 50% of cell growth, OVCAR-3) of the same molecule?
A: 9.46 µM

Q: What about the CC50 ([7]; read-out: LC50: Concentration for 50% cell death, OVCAR-3) of the same molecule?
A: > 100 µM

Q: And the “variation of denaturation temperature (Tm) of native hGal1” value [8]?
A: greater variation

Q: And the “effect on the profile of antiproliferative activity in association with cisplatin” value [9]?
A: substantially improved

Q: And the “Relative viability (%) of test items” value ([10]; 0.781 µM)?
A: 94.8%

Q: What about the “Relative viability (%) of test items” value ([10]; 1.562 µM) of the same molecule?
A: 106.3%

Q: What about the “Relative viability (%) of test items” value ([10]; 3.125 µM) of the same molecule?
A: 104.4%

Q: What about the “Relative viability (%) of test items” value ([10]; 6.25 µM) of the same molecule?
A: 105.3%

Q: And the “Relative viability (%) of test items” value ([10]; 12.5 µM)?
A: 92.2%

Q: And the “Relative viability (%) of test items” value ([10]; 25 µM)?
A: 72.4%

Q: And the “Relative viability (%) of test items” value ([10]; 50 µM)?
A: 32.5%

Q: And the “Relative viability (%) of test items” value ([10]; 100 µM)?
A: −39.4%

Q: What about the “TGI: Concentration for total inhibition of cell growth” value ([10]; DU-145) of the same molecule?
A: 69.568 µM

Q: And the IC50 ([10]; read-out: IC50: Concentration to inhibit 50% of cell growth, DU-145)?
A: 39.3 µM

Q: What about the CC50 ([10]; read-out: LC50: Concentration for 50% cell death, DU-145) of the same molecule?
A: > 100 µM

Q: What about the “inhibitory effect on galectin-induced hemagglutination” value [11] of the same molecule?
A: better effect

Q: And the IC50 [12]?
A: < 25 µM

Q: And the “Relative cell viability (%)” value ([13]; 0.781 µM)?
A: 90.8%

Q: What about the “Relative cell viability (%)” value ([13]; 1.562 µM) of the same molecule?
A: 93.7%

Q: What about the “Relative cell viability (%)” value ([13]; 3.125 µM) of the same molecule?
A: 103.0%

Q: And the “Relative cell viability (%)” value ([13]; 6.25 µM)?
A: 94.2%

Q: And the “Relative cell viability (%)” value ([13]; 12.5 µM)?
A: 78.3%

Q: And the “Relative cell viability (%)” value ([13]; 25 µM)?
A: 32.7%

Q: And the “Relative cell viability (%)” value ([13]; 50 µM)?
A: 15.7%

Q: And the “Relative cell viability (%)” value ([13]; 100 µM)?
A: −71.9%

Q: What about the “TGI: Concentration for total inhibition of cell growth” value ([13]; HT-29) of the same molecule?
A: 53.711 µM

Q: What about the IC50 ([13]; read-out: IC50: Concentration to inhibit 50% of cell growth, HT-29) of the same molecule?
A: 25.1 µM

Q: And the CC50 ([13]; read-out: LC50: Concentration for 50% cell death, HT-29)?
A: 85.8 µM
